Results as given in the supplement of paper PMC10567573.

B1: TMEM120A (parent)
chain: YQSFVQFLQYYYQSGCLYRLRALG
B2: DLC1 (parent)
chain: HVTHWMGQPFNSDDRNTACHHGLV

Variants of: B1
Experiment: protein stability index of a GFP-peptide fusion (GPS, HEK-293T) (PSI 1-6); higher = more stable
Settings: c terminus: a fixed tail appended
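Also: lentivirally expressed fusions sorted by FACS into six bins by GFP to DsRed ratio, PSI derived from sequencing read proportions per bin multiplied by bin number.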

Protein stability index, by site and new letter:
F7: Y 5.14; W 3.54; S 1.04; N 3.1; T 2.28; I 2.33; D 1.8; H 1.62; L 3.51
R19: S 3.54; A 2.88; L 1.22; C 2.93; E 2.1; V 1.95; K 3.35; M 1.97; P 2.84; H 3.88; G 1.88; I 1.84; W 3.14; T 1.74; Y 2.66
S14: R 1.84; T 3.4; G 3.08; M 2.02; H 2.92; N 4.03; Q 2.52; E 2.56; V 3.65; I 3.42
Y10: G 3.01; H 2.17; Q 2.35; I 4.51; E 1.79; A 1.83; S 2.58; C 2.56
F4: P 2.47; M 2.91; I 3.47; R 1.62; W 2.8; T 3.43; Y 2.38; S 1.59; L 3.35; C 3.14; V 4.44; D 1.31; A 3.21
Q6: V 2.92; L 3.11; E 1.84; N 2.48; D 3.22; W 3.03; G 3.6; F 1.8; R 2.24
S3: D 3.12; Y 4.62; A 1.05; P 3.24; L 3.8; H 2.33; T 2.88; M 3.7; N 2.12; V 3.32; R 2.35
L8: G 3.09; Q 2.13; S 1.28; A 3.44; W 1.62; E 1.66; H 1.73; D 1.91; Y 2.79; N 2.08; T 1.88; C 2.17
Q13: M 4.22; N 2.81; F 2.43; C 3.12; G 2.27; Y 1.97; L 2.38; T 1.8; W 4.1; S 3.55; H 2.75
L17: T 1.6; F 2.63; W 3.23; C 3.92; R 4.75; M 2.14; D 3.82
V5: Q 1.89; F 2.25; C 2.31; M 2.91; R 3.82; I 3.51; N 4.88; K 2.62; H 2.39
G15: W 1.9; I 2.66; S 2.95; L 3.31
Q9: W 2.71; M 1.77; F 2.13; P 1.25; L 2.74; A 2.91; N 2.7; C 2.9
G24: W 2.13; L 2.97; M 2.92; R 2.65; C 1.89; Q 3.31; A 1.65; F 2.43; N 1.07; T 2.27; Y 2.12; P 2.47; K 3.01
R21: K 2.17; D 2.28; N 3.14; Q 2.76; Y 2.7; F 1.58
Y12: K 1.86; M 3.19; A 3.04; R 2.3; H 2.51; G 2.04; L 1.19; F 2.15; I 2.34; C 4.09; T 2.73
Q2: Y 1.83; W 1.21
L23: C 3.82; F 1.77; P 2.6; G 3.3; Y 2.61; S 2.6
A22: Y 2.13; I 3.44; F 1.59; S 2.32; K 1.96; L 3.17; T 3.45; H 4.48
C16: Q 2.49; T 2.12; N 1.04; R 2.24; K 1.72
L20: D 2.38; W 2.31; A 1.85; Q 4.03; E 2.34; M 2.47; V 3.1; K 3.64; R 1.47
Y11: R 3.03; L 1.34; C 2.45; M 3.5; F 3.33; S 3.12; W 1.74; A 1.28
Y18: L 4.02; A 1.84; T 1.9; N 1.79; I 2.96; P 2.45; R 1.85; E 2.07; K 1.86

Variants of: B2
Experiment: as above
Settings: c terminus: a fixed tail appended

Protein stability index of substitutions, site by site:
M6: V 2.48; R 2.63; Y 2.23; A 2.75; I 2.12; L 1.93; K 3.28; P 2.44; H 2.34; E 3.24; Q 2.74; T 2.12; G 2.16; W 2.15; S 2.4; F 2.02; C 2.86; D 3.03; N 2.92
H1: L 2.14; E 2.78; Q 2.68; Y 3.14; P 3.08; N 2.76; I 1.83; W 1.78; G 3.08; D 2.68; M 2.5; T 2.91; R 2.31; F 1.89; C 2.04; V 2.51; S 2.61; K 2.46; A 2.68
H4: W 1.6; Y 1.44; C 2.49; A 1.47; Q 1.78; V 2.08; E 2.63; N 2.11; L 1.7; K 2.18; T 2.38; M 2.72; P 2.17; D 2.49; R 1.97; I 1.89; G 1.5; F 1.72; S 2.64
W5: R 3.56; M 3.04; L 2.53; S 4; V 3.55; D 4.27; H 3.8; C 3.33; A 3.26; Y 3.01; K 3.12; E 4.26; G 3.89; N 3.86; I 3.02; P 3.3; F 2.72; T 3.43; Q 3.47
V2: Y 2.42; E 3.78; F 2.71; L 2.74; H 2.35; K 2.65; Q 2.87; A 2.8; I 2.22; P 3.15; R 3.05; T 2.71; D 3.76; N 3.11; C 2.48; M 2.71; S 2.62; G 3.3; W 1.98
G7: I 2.03; S 1.65; R 1.76; E 2.63; N 2.23; K 1.89; T 1.91; M 1.39; C 2.02; P 2.24; H 1.97; Q 2.07; L 2.26; F 2.45; A 2.35; V 1.84; D 2.46
T3: R 1.95; Q 1.93; L 1.59; V 2.78; K 1.91; C 1.8; I 2.01; F 1.69; M 2.05; H 1.93; A 2.5; Y 1.91; E 2.38; N 1.99; W 1.4; S 1.64; D 1.66; G 1.19; P 3.11
